Laboratory results from patent publication US20150203577A1 (Chugai, published 2015).
Positions count from the first letter of the chain named.

T1: mouse FcγRII (mouse, UniProt P08101 30-210)
T1 construct: also called mFcγRII; mFcgRII
T1 sequence: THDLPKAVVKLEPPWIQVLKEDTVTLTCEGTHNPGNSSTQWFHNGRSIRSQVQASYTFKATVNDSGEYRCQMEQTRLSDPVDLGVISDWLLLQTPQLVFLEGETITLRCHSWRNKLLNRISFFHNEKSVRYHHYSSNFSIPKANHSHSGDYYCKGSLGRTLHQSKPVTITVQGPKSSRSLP

T2: mouse FcγRIII (mouse, UniProt P08508 31-215)
T2 construct: also called mFcγRIII; mFcgRIII
T2 chain: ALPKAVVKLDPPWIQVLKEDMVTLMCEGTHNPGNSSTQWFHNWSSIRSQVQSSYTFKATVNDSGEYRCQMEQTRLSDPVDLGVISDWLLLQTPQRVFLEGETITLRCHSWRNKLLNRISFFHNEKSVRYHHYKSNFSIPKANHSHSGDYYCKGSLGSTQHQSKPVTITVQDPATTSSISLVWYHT

B1: H237-MB337/MRAL-k0 (antibody, mouse IgG1, kappa)
heavy: QVQLQESGPGLVKPSETLSLTCAVSGHSISHDHAWSWVRQPPGEGLEWIGFISYSGITNYNPSLQGRVTISRDNSKNTLYLQMNSLRAEDTAVYYCARSLARTTAMDYWGEGTLVTVSSAKTTPPSVYPLAPGSAAQTNSMVTLGCLVKGYFPEPVTVTWNSGSLSSGVHTFPAVLQSDLYTLSSSVTVPSSTWPSETVTCNVAHPASSTKVDKKIVPRDCGCKPCICEAPEVEDVFIFPPKPKDVLTITLTPKVTCVVVDISKDDPEVQFSWFVDDVEVHTAQTQPREEQFNSTFRSVSELPIMHQDWLNGKEFKCRVNSAAFPAPIEKTISKTKGRPKAPQVYTIPPPKEQMAKDKVSLTCMITDFFPEDITVEWQWNGQPAENYKNTQPIMDTDGSYFVYSKLNVQKSNWEAGNTFTCSVLHEGLHNHHTEKSLSHSPGK
light: not shown
notes: copies: 2 + 2
B2: MB317 (antibody, mouse IgG1, kappa)
heavy: B1 heavy with E229T, A230V, V236H
light: not shown
notes: copies: 2 + 2
B3: MB296 (antibody, mouse IgG1, kappa)
heavy: B1 heavy with E229T, A230V, E234S, S263A
light: not shown
notes: copies: 2 + 2
B4: MB303 (antibody, mouse IgG1, kappa)
heavy: B1 heavy with A230V, E234S, V236E
light: not shown
notes: copies: 2 + 2
B5: MB304 (antibody, mouse IgG1, kappa)
heavy: B1 heavy with A230V, E234S, V236H
light: not shown
notes: copies: 2 + 2
B6: MB295 (antibody, mouse IgG1, kappa)
heavy: B1 heavy with E229T, A230V, E234S, V236H
light: not shown
notes: copies: 2 + 2
B7: MB307 (antibody)
heavy: B1 heavy with E229T, E234S, V236E
light: not shown
notes: copies: 2 + 2
B8: MB293 (antibody, mouse IgG1, kappa)
heavy: B1 heavy with E229T, A230V
light: not shown
notes: copies: 2 + 2
B9: MB316 (antibody, mouse IgG1, kappa)
heavy: B1 heavy with E229T, A230V, V236E
light: not shown
notes: copies: 2 + 2
B10: MB310 (antibody, mouse IgG1, kappa)
heavy: B1 heavy with E229T, A230D
light: not shown
notes: copies: 2 + 2
B11: MB313 (antibody, mouse IgG1, kappa)
heavy: B1 heavy with E229T, A230V, P231E
light: not shown
notes: copies: 2 + 2
B12: MB314 (antibody, mouse IgG1, kappa)
heavy: B1 heavy with E229T, A230V, P231E, E234S, V236E
light: not shown
notes: copies: 2 + 2
B13: MB291 (antibody, mouse IgG1, kappa)
heavy: B1 heavy with E229T, A230D, E234S
light: not shown
notes: copies: 2 + 2
B14: MB306 (antibody, mouse IgG1, kappa)
heavy: B1 heavy with E229T
light: not shown
notes: copies: 2 + 2
B15: MB309 (antibody, mouse IgG1, kappa)
heavy: B1 heavy with E229T, A230D, P231E, E234S
light: not shown
notes: copies: 2 + 2
B16: MB294 (antibody, mouse IgG1, kappa)
heavy: B1 heavy with E229T, A230V, E234S, V236E
light: not shown
notes: copies: 2 + 2
B17: MB315 (antibody, mouse IgG1, kappa)
heavy: B1 heavy with E229T, A230V, P231E, E234S, V236H
light: not shown
notes: copies: 2 + 2
B18: MB311 (antibody, mouse IgG1, kappa)
heavy: B1 heavy with E229T, A230D, E234S, V236E
light: not shown
notes: copies: 2 + 2
B19: MB308 (antibody, mouse IgG1, kappa)
heavy: B1 heavy with E229T, E234S, V236H
light: not shown
notes: copies: 2 + 2
B20: MB289 (antibody, mouse IgG1, kappa)
heavy: B1 heavy with A230V, E234S
light: not shown
notes: copies: 2 + 2
B21: MB312 (antibody, mouse IgG1, kappa)
heavy: B1 heavy with E229T, A230D, E234S, V236H
light: not shown
notes: copies: 2 + 2
B22: MB300 (antibody, mouse IgG1, kappa)
heavy: B1 heavy with A230D, E234S
light: not shown
notes: copies: 2 + 2
B23: MB299 (antibody, mouse IgG1, kappa)
heavy: B1 heavy with E234S
light: not shown
notes: copies: 2 + 2
B24: MB292 (antibody, mouse IgG1, kappa)
heavy: B1 heavy with E229T, A230V, P231E, E234S
light: not shown
notes: copies: 2 + 2
B25: MB301 (antibody, mouse IgG1, kappa)
heavy: B1 heavy with A230V, P231E, E234S
light: not shown
notes: copies: 2 + 2

molecular target: T1, mouse FcγRII; assay: SPR Biacore T200, KD ratio
Excerpt: (§1) The antibody H chain variable region used was the variable region H237 (SEQ ID NO: 1) of the H chain VH3-IgG1 of the anti-IL-6 receptor antibody Fv4-IgG1 described in WO2009/125825. The antibody L chain commonly used was the L chain MRAL-k0 (SEQ ID NO: 2) of the anti-IL-6 receptor antibody tocilizumab. […] The resulting variant group was designated as MB110 variants. These variants were expressed and purified by the method of Reference Example 1 and evaluated for their binding to mFcγRII and mFcγRIII by the method of Reference Example 2 using Biacore T200.
(§2) Each altered antibody was analyzed for its interaction with each Fcγ receptor prepared above using Biacore T100 (GE Healthcare Japan Corp.), Biacore T200 (GE Healthcare Japan Corp.), Biacore A100, or Biacore 4000. The running buffer used was HBS-EP+ (GE Healthcare Japan Corp.). The assay temperature was set to 25° C. The sensor chips used were chips prepared by immobilizing Protein L (ACTIGEN or BioVision) onto Series S Sensor Chip CM5 (GE Healthcare Japan Corp.) or Series S Sensor Chip CM4 (GE Healthcare Japan Corp.) by the amine coupling method.
(§3) In order to calculate the KD value of each altered antibody for FcγR, kinetic analysis was conducted according to the following method: first, the antibody of interest was captured onto any of these chips and allowed to interact with mFcγR diluted with a running buffer. For the obtained sensorgram, the assay results were globally fit into the 1:1 Langmuir binding model using Biacore Evaluation Software to calculate an association rate constant ka (L/mol/s) and a dissociation rate constant kd (1/s). From these values, the dissociation constant KD (mol/L) was calculated.

Row | Relative mFcγRII-binding activity (MB110 = 1) [fold] | relative mFcγRII-binding activity (mIgG1 = 1) [fold] | Binder
1 | 5.98 | 73.4 | B1
2 | 0.49 | 6 | B2
3 | 1.71 | 21 | B3
4 | 0.64 | 7.8 | B4
5 | 1.11 | 13.7 | B5
6 | 0.62 | 7.6 | B6
7 | 0.92 | 11.3 | B7
8 | 3.25 | 39.9 | B8
9 | 0.61 | 7.4 | B9
10 | 3.16 | 38.8 | B10
11 | 3.27 | 40.1 | B11
12 | 0.58 | 7.1 | B12
13 | 3.47 | 42.6 | B13
14 | 5.36 | 65.8 | B14
15 | 2.27 | 27.9 | B15
16 | 0.62 | 7.6 | B16
17 | 0.48 | 5.9 | B17
18 | 1.43 | 17.6 | B18
19 | 2.14 | 26.3 | B19
20 | 3.57 | 43.8 | B20
21 | 4.51 | 55.4 | B21
22 | 4.25 | 52.3 | B22
23 | 4.96 | 60.8 | B23
24 | 2.82 | 34.6 | B24
25 | 3.52 | 43.2 | B25

Molecular target: T2, mouse FcγRIII
Assay: SPR Biacore T200, KD ratio
Excerpt: as §1, §2, §3

Row | Relative mFcγRIII-binding activity (MB110 = 1) [fold] | relative mFcγRIII-binding activity (mIgG1 = 1) [fold] | Binder
26 | 1.15 | 4.6 | B1
27 | 0.12 | 0.5 | B2
28 | 1.39 | 5.6 | B3
29 | 0.32 | 1.3 | B4
30 | 0.5 | 2 | B5
31 | 0.42 | 1.7 | B6
32 | 0.55 | 2.2 | B7
33 | 1.01 | 4.1 | B8
34 | 0.31 | 1.2 | B9
35 | 0.96 | 3.8 | B10
36 | 0.99 | 4 | B11
37 | 0.27 | 1.1 | B12
38 | 1.66 | 6.7 | B13
39 | 1.05 | 4.2 | B14
40 | 0.96 | 3.9 | B15
41 | 0.47 | 1.9 | B16
42 | 0.2 | 0.8 | B17
43 | 0.52 | 2.1 | B18
44 | 0.67 | 2.7 | B19
45 | 1.23 | 4.9 | B20
46 | 0.87 | 3.5 | B21
47 | 1.41 | 5.7 | B22
48 | 1.61 | 6.5 | B23
49 | 1.02 | 4.1 | B24
50 | 1.16 | 4.6 | B25
